Results as given in article PMC3907034.

Molecular target: HIV-1 P7L-S40A-Gag, full-length (HIV-1)
Experiment: two-hybrid; Matchmaker GAL4 system, S. cerevisiae Y190, quantitative liquid beta-galactosidase assay; units normalized to P7L with Alix (panel B) or WT Gag with Alix (panel C)

full-length Alix (from UniProt Q8WUM4 1-868) (natural protein)
fold increase of binding (beta-galactosidase units) against P7L-Gag with Alix: 7 fold
